Results published in paper doi:10.1101/2020.10.05.327064 (bioRxiv, 2020).
Numbering of substitutions follows the chain as printed. Names and notes keep the numbering of the source. Each block holds one binder with its values, some of them ahead of it.

Key:
[1] = molecular target: T1, Human Hsf1 wild type (human), Q00613; assay: SEC; conditions: remark: other sources report otherwise
T1 chain: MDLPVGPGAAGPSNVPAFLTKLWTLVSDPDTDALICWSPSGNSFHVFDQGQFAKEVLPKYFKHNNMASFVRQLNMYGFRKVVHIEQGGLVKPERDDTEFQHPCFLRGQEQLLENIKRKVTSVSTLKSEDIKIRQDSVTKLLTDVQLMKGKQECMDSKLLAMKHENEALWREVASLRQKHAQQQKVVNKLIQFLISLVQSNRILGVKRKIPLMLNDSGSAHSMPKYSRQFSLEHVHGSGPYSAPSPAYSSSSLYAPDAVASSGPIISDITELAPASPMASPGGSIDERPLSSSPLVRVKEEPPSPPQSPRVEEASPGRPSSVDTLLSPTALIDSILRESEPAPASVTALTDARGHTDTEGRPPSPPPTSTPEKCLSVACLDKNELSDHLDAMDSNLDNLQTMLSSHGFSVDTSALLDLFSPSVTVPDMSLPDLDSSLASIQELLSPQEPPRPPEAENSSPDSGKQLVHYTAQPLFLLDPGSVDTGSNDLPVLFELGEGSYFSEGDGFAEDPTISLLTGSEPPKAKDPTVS

[2] = molecular target: the molecule itself; assay: SEC

- stoichiometry N [1]: 3
B1: Human Hsf1 wild type, Q00613 1-529 (natural protein)
chain: T1 chain

B2: Hsf1-S303E,S307E (natural protein)
chain: T1 chain with S303E, S307E
- stoichiometry N [2]: 3
